Substitutions are numbered along the chain they refer to.
B1: Z050 (BRA138_28) (antibody, V domains shown)
VH: QVQLVQSGAEVKKPGSSVKVSCKAPGGTFSRYSIAWVRQAPGQGLEWMGGINPTFTTPNYAQKFQGRVTITADESTNTAYLDLSSLRSEDTAVYYCARFRYYYESGGYSDASPYYLDYWGQGTLVTVSS
VL: EIVLTQSPATLSLSPGERVTLSCRASQSVSSYLAWYQQKPGQAPRLLIYDASNRATGIPARFTGSGSGTDFTLTISSLEPEDFAVYYCQQRSNWPLTFGGGTKVEIK
B2: Z016 (MEX84_p2-55) (antibody, V domains shown)
VH: QVQLVQSGAEVKKPGASVKLSCKASGYTFTSYYVHWVRQAPGQGLEWMGIINPGNNFVSFAQNFYDRATMTRDTSTNTVYMELTNLQSEDTAVYYCARTLVAPSAQSMYYFDFWGQGTLVTVSS
VL: EIVLTQSPGTLSLSPGERGTLSCRASQYITTGHFAWYQQKPGRAPRLLIYGASVRATGVPDRFSGSGAETDFTLTISRLDPEDVGVYYCQQYGSSPVTFGPGTKVDIK
B3: Z053 (BRA138_65) (antibody, V domains shown)
VH: QLQLQESGPGLVKPSETLSLTCTVSGGSISSYNYYWGWIRQPPGKGLEFIGSIYYTGSTYYNPSLRSRVTISVDTSKNQFSLKLTSVTAADTAVYYCARHGPGMGHNWYFDLWGRGTLVTVSS
VL: EIVLTQSPATLSLSPGERATLSCRASQSISSYLAWYQQKPGQAPRLLIYDASNRAPGIPARFSGSGSGTDFTLTISSLEPEDFAVYYCQQRSTWLTFGGGTKVEIK
B4: Z005 (MEX18_13) (antibody, V domains shown)
VH: EVQLLESGGGLVQPGGSLRLSCAASGFTFSSYAMSWVRQAPGKGLEWVSSFSGIDDSTWYADSVKGRFTISRDNSKSTLYLQMNSLRAEDTAVYYCAKDRLVRGFAEVLDYWGRGTLVTVSS
VL: DIQMTQSPSSLSASVGDRVTITCRASQDISKYLAWYQQRPGKVPNLLIYTASTLQSGVPSRFSGSGSGTHFTLTISSLQPEDVATYYCQKYNSVPWTFGQGTKVEIK
B5: Z007 (MEX105_50) (antibody, V domains shown)
VH: EVQLLESGGGLVRPGGSLRLSCTASGFTFRRYAMAWVRQAPGKGLEWVSLIYDGDDSTYYAKSVKGRFAISRDNSKNTLSLQMNSLRAEDTAVYYCVKDRDNGWSSIVDWGQGTLVTVSS
VL: DIQMTQSPSTLSASVGDRVTITCRASHSISGWLAWYQQKPGKAPKLLIYQASILESGVPSRFSGSGSGTEFTLTIGSLQPEDFATYFCQQYSTFWTFGQGTKVEIK
B6: Z009 (MEX105_64) (antibody, V domains shown)
VH: B5 VH with D53N, K62E, A69T, I70V, K76Q, V93I, K98R
VL: B5 VL with H27R, S28T, S30G, G31S, S56G, G66V, G76R
B7: Z008 (MEX105_60) (antibody, V domains shown)
VH: B5 VH with Y32F, Y52W, D53N, K62E, K65R, A69T, K76H, N84R, V93I
VL: B5 VL with H27Q, S28T, S30G, G31N, I53V, G76S
B8: Z051 (BRA138_59) (antibody, V domains shown)
VH: QVQLQESGPGLVKPSQTLSLTCTVSGVSISSGGYYYSWFRQLPGKGLEWIGHIYYTGNTHYNPSLRSRLTISVDTSKNQFSLKLSSVTAADTARYYCARAWCEYAAYCWFDPWGRGTLVTVSS
VL: EIVLTQSPGTLSLSPGERATLSCRASQSVTSSYLAWYQHKPGQAPRLLIYGASSRAPGIPDRFSGSGSGTDFTLTISRLEPEDFAVYWCQQYGRSPFTFGQGTKLEIK
B9: Z059 (MEX84_p4-34) (antibody, V domains shown)
VH: EVQLVQSGAEVKTPGSSVKVSCKTSGGTFSNFAITWVRQAPGQGLEWMGGIIPLFGITNYTQKFQGRVTITTDESKTTAYMDLSGLRSEDTAVYFCARGRDSSGRLLDHWGQGTLVTVSS
VL: EIVMTQSPATLSVSPGERATLSCRASQTVNRNLAWYQQKPGQAPRLLIYAASARATGVPARFSGSGSGTEFTLTISSLQSEDFVVYYCQQYNNWPPLTFGGGTKLEIK
B10: Z056 (MEX84_p2-94) (antibody, V domains shown)
VH: EVQLVQSGAEVKKPGASVKVSCKASGNTFMGYYFHWVRQAPGQGLEWMGWINPNSGHANIAQTFQGRVTMTRDPSITTAYMELSRLRSDDTAVFYCARGGMLGQLWALDNWGQGTLVTVSS
VL: DIQMTQSPSTLSASVGDRVTITCRASQSISHWLAWYQQRPGEAPKLLIYQASTLESGVPSRFSGSGSGTEFTLSISSLQPDDFATYYCQQYQSSPYTFGQGTKLEIK
B11: Z062 (BRA112_70) (antibody, V domains shown)
VH: EVQLVESGGGVVQPGRSLRLSCAASGFSFSSHAMYWVRQAPGKGLEWVAIVSYDGSTKNYADSVKGRFTISRDNSKNTIYLHLNSLRAEDTAVYFCAREVDGIYGYLHYWGQGTLVTVSS
VL: EIVLTQSPATLSLSPGERATLSCRARQNVRNFLAWYQQKPGQAPRLLIYDASNRATDIPARFSGSGSGTDFTLTISSLEPEDFAVYYCQQRSYSITFGQGTRLEIK
B12: Z036 (BRA112_91) (antibody, V domains shown)
VH: EVQLLESGGDLVQPGGSLRLSCAASGFTFSTYGMAWVRQAPGKGLEWLSSISSVDDSKYYAASVKGRFTISRDNSRNTLYLHMNSLRVDDTAVYYCAKDRIPHGLGELYANWGQGTLVTVSS
VL: DIQMTQSPSTLSASVGDRVTITCRASQSISGWLAWYQQKPGKAPRLLMHKASNLYSGVPSRFSGSGSGTEFTLTISSLQPDDFATYYCQHYHSYPYTFGQGTKVEIK
B13: Z052 (BRA138_62) (antibody, V domains shown)
VH: QVQLQESGPGLVKPSQTLSLTCTVSGGSITGGVYYWNWIRHHPGKGLEWIGYMFYSGDTDYNPSLRSRVTISGDTSKNKFSLNLNSVTAADTAVYYCARAGFDYGSPVSAFDIWGQGTLVTVSS
VL: EIVLTQSPATLSLSPGERATLSCRASQSVSSTYLVWYQQKPGQAPRLLIYGASSRATGIPDRFSGSGSGTDFTLTISRLEPEDFAVYFCQQYAHSPRGYTFGQGTKLEIK
B14: Z057 (MEX84_p4-54) (antibody, V domains shown)
VH: EVQLVQSGAEVKRPGASVKVSCKASGYTFADYYIHWVRQAPGLGLEWMGWINPKTGFSHYEQTFQGRVTMARDTSIPAAYMELSSLKSDDTAIYYCARGGRINVAEALRYWGQGSLVTVSS
VL: DIQMTQSPSTLSTFVGDRVTITCRASQTIGDWLAWYQQKPGKAPKLLISKATRLESGVPSRFSGSGSETEFSLTINSLQPDDVAAYYCQQYMSYPWTFGQGTKLEIK
B15: Z055 (MEX84_p4-61) (antibody, V domains shown)
VH: EVQLVQSGAEVKKPGASVKVSCKASGYTFSGYYIHWLRQAPGQGLEWMGWINSNSGGADSGPRFHGRVTMTRDTSINTAYLELTNLRSDDTAVYYCARRTYYDTRFPYWYFDLWGRGTLVTVSS
VL: AIRMTQSPSSLSASVGDRVTITCRASQDIGSYLNWYQQKPGKAPNVLISAASTLQSGVPSRISGIGSGTDFTLTISSLQPEDFATYYCQQSLSAPYTFGQGTKLEIK
B16: Z061 (BRA112_36) (antibody, V domains shown)
VH: EVQLVESGGGVVQPGRSLRLSCAASGFTFSISTIHWVRQAPGKGLEYVVVISHDGNTKYYADSVKGRFIISRDNSKNTVFLQMNSLRPVDTAVYYCARGEVGYFDLWGRGTLVTVSS
VL: EIVLTQSPATLSLSPGERATLSCRASQSVSSFLAWYQQKPGQPPRLLIYDASTRATGIPARFSGSGSGTDFTLTISSLEPEDFAVYYCQQRSNWPPITFGQGTRLEIK
B17: Z002 (MEX18_27) (antibody, V domains shown)
VH: EVQLLESGGGLVQPGGSLRLSCATSGFTFSTYAMSWVRQAPGKGLEWVSSFSGVDDSTYYAESVKGRFTISRDNSKNTVYLQMTRLRAEDTAVYYCAKDRGPRGVGELFDSWGQGTLVTVSS
VL: DIQMTQSPSTLSASVGDRVTMTCRASQSINRWLAWYQQKPGKAPKLLIYTTSTLKSGVPSRFSGSGSGTEFTLTISSLQPDDFATYYCQHFHSVPWTFGQGTKVEIK
B18: Z003 (MEX18_58) (antibody, V domains shown)
VH: EVQLLESGGGLVQPGGSLRLSCATSGFTFTTFAMSWVRQAPGKGLEWVSSISGADDSTYYAASVKGRFTISRDNSRSTLFLQMNSLRAEDTAVYYCAKDRGPRGVGELFDSWGQGTLVTVSS
VL: B17 VL with M21I, N30S, R31K, K45R, H92F
B19: Z011 (MEX105_15) (antibody, V domains shown)
VH: EVQLLESGGGLVQPGGSLRLSCAASGFTFRTYAMSWVRQPPGKGLEWVSSISAREDSTYFAASVRGRFTISRDNSKNTLYLQMNNLRAEDTALYYCAKDRLQLGVGELYESWGQGTLVTVSS
VL: B17 VL with M21I, S28N, R31S, T50M, T51A, T53S, K55Q, I75V, F91Y, V94Y
B20: Z034 (BRA112_09) (antibody, V domains shown)
VH: EVQLLESGGGLAQPGGSLRLSCETSGFTFRSYGMGWVRQAPGKGLEWVSSIYISGDSTYYAASVKGRFTISRDNSKSTLYLQMDRLTAEDTAVYYCVRDRIQGGFGELYRYWGQGTLVTVSS
VL: B17 VL with I29V, R31K, T50E, T53I, K55E, P59S, F91Y, S93G, V94Y
B21: Z004 (MEX18_89) (antibody, V domains shown)
VH: EVQLLESGGGLVQPGGSLRLTCATSGFTFRDYAMSWVRQAPGKGLEWVSSYSGIDDSTYYADSVKGRFTISRDNSKSTLSLHMNSLRAEDSALYFCAKDRGPRGVGELFDSWGQGTLVTVSS
VL: B17 VL with M21I, N30S, R31K, H92Y

Target: T1, ZIKV envelope domain III ([..]), polyhistidine-AviTag, made in HEK-293-6E cells (Zika virus (KJ776791))
Experiment: ELISA on ZIKV EDIII (Table A)
Conditions: remark: other sources report otherwise

Binder | EC50
B1 | 0.0303 µg/mL
B2 | 0.0724 µg/mL
B3 | 1.68 µg/mL
B4 | 0.216 µg/mL
B5 | 0.0346 µg/mL
B6 | 0.0284 µg/mL
B7 | 0.0326 µg/mL
B8 | 1.86 µg/mL
B9 | 0.61 µg/mL
B10 | 0.982 µg/mL
B11 | 0.208 µg/mL
B12 | 0.0172 µg/mL
B13 | 0.0131 µg/mL
B14 | 0.0828 µg/mL
B15 | 1.88 µg/mL
B16 | 0.311 µg/mL
B17 | 0.0252 µg/mL
B18 | 0.0255 µg/mL
B19 | 0.038 µg/mL
B20 | 0.0235 µg/mL

Target: T1, ZIKV envelope domain III ([..]), …
Experiment: ELISA, biotinylated Z004 on ZEDIII, streptavidin-HRP
Conditions: remark: other sources report otherwise

Binder | EC50
B21 | 0.16 µg/mL

From patent publication US20220306729A1
